From patent US20230080224A1 (AGENCY FOR SCIENCE TECHNOLOGY AND RESEARCH, published 2023) come the findings set out here.

Assay [1] has as its target T1, human ALPPL2 (recombinant protein) (human, UniProt P10696 20-503, limits assumed).
T1 construct: biotinylated where captured on streptavidin
In words: screen of rabbit B-cell clones by ELISA and FACS. An excerpt: (§1) Specific clones were screened and identified by ELISA and high throughput flow cytometry (FIG. 3). Rabbit kidney cells were transfected with either truncated (for ELISA screen) or full-length (for FACS screen) ALPI and ALPPL2.

Assay [2] addresses T2, ALPI (screening and SPR/ELISA protein) (UniProt P09923 20-503, limits assumed).
T2 sequence (looked up): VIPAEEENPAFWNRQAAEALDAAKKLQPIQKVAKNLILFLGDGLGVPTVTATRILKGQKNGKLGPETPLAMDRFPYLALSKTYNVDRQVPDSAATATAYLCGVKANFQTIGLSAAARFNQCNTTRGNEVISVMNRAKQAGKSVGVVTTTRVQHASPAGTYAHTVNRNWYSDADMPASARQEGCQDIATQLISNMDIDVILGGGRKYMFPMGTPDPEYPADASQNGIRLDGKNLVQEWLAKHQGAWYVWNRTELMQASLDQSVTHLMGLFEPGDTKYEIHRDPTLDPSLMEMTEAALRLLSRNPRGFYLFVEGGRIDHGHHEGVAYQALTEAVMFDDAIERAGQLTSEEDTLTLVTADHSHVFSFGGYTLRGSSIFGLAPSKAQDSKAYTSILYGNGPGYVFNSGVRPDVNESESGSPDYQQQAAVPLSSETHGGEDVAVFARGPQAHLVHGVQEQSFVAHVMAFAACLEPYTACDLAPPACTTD
In words: screen of rabbit B-cell clones by ELISA and FACS.
Description: as §1
(ELISA stands for enzyme-linked immunosorbent assay.)

Assay [3] has as its target T3, human ALPPL2 (recombinant protein) (human, UniProt P10696 20-503).
T3 chain: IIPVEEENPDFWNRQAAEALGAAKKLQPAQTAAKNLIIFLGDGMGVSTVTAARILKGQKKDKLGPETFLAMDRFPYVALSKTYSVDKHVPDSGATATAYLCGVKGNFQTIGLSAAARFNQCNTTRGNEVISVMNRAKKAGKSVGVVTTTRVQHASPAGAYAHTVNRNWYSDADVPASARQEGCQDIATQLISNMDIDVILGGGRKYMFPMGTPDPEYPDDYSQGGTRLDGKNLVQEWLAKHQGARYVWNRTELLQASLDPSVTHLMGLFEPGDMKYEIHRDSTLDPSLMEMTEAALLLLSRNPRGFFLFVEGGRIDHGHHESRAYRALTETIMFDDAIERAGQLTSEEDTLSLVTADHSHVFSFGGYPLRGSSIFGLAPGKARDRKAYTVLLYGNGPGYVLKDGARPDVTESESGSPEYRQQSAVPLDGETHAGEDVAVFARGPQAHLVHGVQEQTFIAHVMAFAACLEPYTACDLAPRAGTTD
In words: BLI; single concentration. On the technique in general: In BLI a coated tip is dipped into the sample, and binding shifts an interference pattern.

Assay [4] has as its target T1, human ALPPL2 (recombinant protein). In words: SPR, Biacore T200, ligand captured by streptavidin on CM5 chip, antibody as analyte. The protocol:
(§2) Select clones (C4, C15, C131, C12, C18, C36 and C53) were humanized by grafting the CDRs to a human IgG1 framework. […] Surface plasmon resonance was studied using Biacore T200. Ligands (e.g. ALPPL2 or ALPP) were immobilized on biosensors CM5 chips captured with the streptavidin. Ligands-loaded sensors were then incubated with different concentrations of analyte (recombinant expressed humanized antibody clones) to measure affinity.

In assay [5] the target is human ALPP (recombinant protein) (human, UniProt P05187 23-506, limits assumed). The description is as above. As to the method: as §2
In assay [6] the target is T4, human ALPPL2 expressed on cells (human, UniProt P10696 20-503).
T4 construct: whole, on cells; also called placental-like alkaline phosphatase
In words: immunohistochemistry on FFPE ALPPL2+ve cell lines and tumor tissues. As to the method: To enable development of a companion diagnostic, the IHC activity of the antibodies was evaluated (FIG. 5). Antigen retrieval by Proteinase-K digestion, but not heat mediated antigen retrieval, enabled detection. C36, C45 and C130 enabled detection in ALPPL2+ve cell lines (SCH) and formalin fixed paraffin embedded (FFPE) human tumor tissues by IHC. […] This is also indicative the optimal therapeutic window of these antibodies in the clinic.

The target in assay [7] is T3, human ALPPL2 (recombinant protein). In words: SPR. Background: SPR reads the build-up and loss of mass on a sensor chip optically.
In assay [8] the target is T5, human ALPP (recombinant protein) (human, UniProt P05187 23-506).
T5 chain: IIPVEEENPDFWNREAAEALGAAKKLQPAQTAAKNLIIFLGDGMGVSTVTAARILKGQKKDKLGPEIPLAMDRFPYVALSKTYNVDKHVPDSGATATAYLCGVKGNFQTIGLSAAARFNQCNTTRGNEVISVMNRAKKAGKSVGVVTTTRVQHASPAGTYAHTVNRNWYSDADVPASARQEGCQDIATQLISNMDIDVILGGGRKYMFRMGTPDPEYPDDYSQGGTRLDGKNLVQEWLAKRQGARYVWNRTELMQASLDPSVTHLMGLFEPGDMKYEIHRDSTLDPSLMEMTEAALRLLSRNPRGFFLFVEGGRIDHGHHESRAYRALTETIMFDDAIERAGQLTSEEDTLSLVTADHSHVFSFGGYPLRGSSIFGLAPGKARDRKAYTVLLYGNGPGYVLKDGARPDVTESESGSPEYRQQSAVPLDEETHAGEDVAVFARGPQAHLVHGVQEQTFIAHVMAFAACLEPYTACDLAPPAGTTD
In words: SPR.

In assay [9] the target is T4, human ALPPL2 expressed on cells. In words: FACS (FIG. 13).
The target in assay [10] is T6, human ALPP expressed on cells (human, UniProt P05187 23-506).
T6 construct: whole, on cells
In words: FACS (FIG. 13).

In assay [11] the target is T7, human ALPI expressed on cells (human, UniProt P09923 20-503).
T7 construct: whole, on cells
T7 sequence (looked up): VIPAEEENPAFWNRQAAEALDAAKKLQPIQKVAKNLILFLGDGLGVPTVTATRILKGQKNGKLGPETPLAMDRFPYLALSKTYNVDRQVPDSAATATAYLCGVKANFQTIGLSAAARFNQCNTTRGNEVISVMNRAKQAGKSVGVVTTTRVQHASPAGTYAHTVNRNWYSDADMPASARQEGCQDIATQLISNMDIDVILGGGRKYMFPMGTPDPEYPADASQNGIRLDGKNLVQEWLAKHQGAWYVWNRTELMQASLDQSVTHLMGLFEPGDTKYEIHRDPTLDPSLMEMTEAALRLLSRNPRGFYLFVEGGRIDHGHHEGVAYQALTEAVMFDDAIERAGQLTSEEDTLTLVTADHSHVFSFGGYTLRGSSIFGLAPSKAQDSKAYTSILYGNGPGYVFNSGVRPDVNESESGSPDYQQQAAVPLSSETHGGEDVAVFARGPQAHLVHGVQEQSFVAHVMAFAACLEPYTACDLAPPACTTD
In words: FACS on transiently transfected 293T cells (FIG. 13A).

In assay [12] the target is T8, human ALPL expressed on cells (human, UniProt P05186 18-501).
T8 construct: whole, on cells
T8 sequence (looked up): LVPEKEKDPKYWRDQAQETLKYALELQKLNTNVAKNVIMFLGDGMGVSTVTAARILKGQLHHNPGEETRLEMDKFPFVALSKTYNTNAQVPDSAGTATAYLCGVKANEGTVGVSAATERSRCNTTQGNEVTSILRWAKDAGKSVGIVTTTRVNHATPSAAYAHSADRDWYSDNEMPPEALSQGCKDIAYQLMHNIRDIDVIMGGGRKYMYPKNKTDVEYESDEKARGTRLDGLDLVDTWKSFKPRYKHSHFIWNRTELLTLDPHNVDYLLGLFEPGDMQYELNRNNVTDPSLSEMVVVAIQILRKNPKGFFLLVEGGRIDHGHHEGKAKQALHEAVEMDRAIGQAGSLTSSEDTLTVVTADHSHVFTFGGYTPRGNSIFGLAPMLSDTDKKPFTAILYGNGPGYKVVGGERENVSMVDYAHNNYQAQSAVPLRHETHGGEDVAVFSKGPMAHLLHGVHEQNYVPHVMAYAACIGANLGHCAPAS
The description is as above.

B1: AB2C131 (antibody, V domains shown)
VH: QSLEESGGGLVQPEGSLTLTCTASGFSFSSSYYMCWVRQAPGKGLEWIACIYAGSTFSTYYASWAKGRFTISKTSSTTVTLQMTSLTAADTATYFCARSDSYYTYGYAGYAYAIFNLWGPGTLVTVSS
VL: LVMTQTPSSVSAAVGGTVTINCQASESIYSNLAWYQQKPGQPPKLLIYLASTLASGVPSRFKGSGSGTEFTLTISDLECADAATYYCQSAYYSSSADIAFGGGTEVVVK
notes: Rabbit antibody cloned from a single B cell
For B1, the binding result in assay [1] is reported as “binds”; in assay [2], “no binding”. Moreover, the equilibrium dissociation constant (Kd) in [3] is 8 nM.

B2: humanized C15 (antibody, human IgG1, V domains shown)
VH: EVQLVESGGGLVQPGGSLRLSCAASGFSFSSSYYMCWVRQAPGKGLEWIACIYTTYGGTWYASWAKGRFTISRDNSKNTLYLQMNSLRAEDTAVYYCARSSISDVTYFNLWGQGTLVTVSS
VL: DIQMTQSPSSLSASVGDRVTITCQASQSISNYLAWYQQKPGKVPKLLIYRASTLESGVPSRFSGSGSGTDFTLTISSLQPEDVATYYCQSYYDNNNYAFGQGTKVEIK
notes: CDRs grafted to a human IgG1 framework; recombinant; also called hC15
Consider B2, for which the binding result in assay [4] and in assay [5] was “binds” each time.

B3: AB1C36 (antibody, V domains shown)
VH: QSLEESGGDLVKPGASLTLTCTASGFSFSSGYNICWVRQAPGKGLELIACIYTSSSGSTYYASWAKGRFTISKTSSTTVTLQMTSLTVADTATYFCARGEAYYAYGYVGYAYYHGAFDPWGPGTLVTVSS
VL: DIVMTQTPASVEAGVGGTVTIKCQASHSISKYFSWYQQKIGQPPKLLIYEASTLASGVPSRFKGSGSGTQFTLTISDLECADAATYYCQSYYYGTSSSYAFGGGTEVVVK
notes: as for B1
B3: the binding result in assay [1] is “binds”; in [2] it was “no binding”; in assay [6] it was “binds”. For the same molecule, the Kd in assay [3] amounted to 1.6 nM.

B4: AB1C45 (antibody, V domains shown)
VH: QERLEESGGGLVQPEGSLTLTCTASGFSFSSSYYMCWVRQAPGKGMEWIGCIYTGNDDTWYASWAKGRFTVSKTSSTTVTLQMTSLTATDTATYFCARGLSPIDLWGPGTLVTVSS
VL: IVMTQTPSSKSVPVGDTVTINCQASESIYNNNNLGWYQQKPGQPPKLLIYWASTLASGVPSRFKGSGSGTQFTLTISDVECDDAATYYCAGYKSRTTDGSAFGGGTEVVVK
notes: as for B1
B4: the binding result in assay [1] is on record as “binds”; in assay [2], “no binding”; in [6], “binds”.

B5: AB2C130 (antibody, V domains shown)
VH: QSLEESGGDLVKPGASLTLTCTASGFSFSSGYWICWVRQAPGKGLEWIACIYTGVGATYYASWAKGRFTISKTSSTTVTLQMTSLTAADTATYFCARDFGGSSGFYFNLWGPGTLVTVSS
VL: FELTQTPSSVEAAVGATVTIKCQASQSISNALAWYQQKPGQPPKLLIYSASTLESGVPSRFKGSGSGTEFTLTISDLECADAATYYCQNYYGSTSSSYGVAFGGGTEVVVK
notes: as for B1
Consider B5, for which the results for the binding result in assay [1], in assay [2] and in [6] were “binds”, “no binding” and “binds”, respectively. Moreover, in assay [3], the equilibrium dissociation constant (Kd) was 0.001 nM.

B6: humanized C12 (antibody, human IgG1, V domains shown)
VH: EVQLVESGGGLVQPGGSLRLSCAASGFSFSSSYWISWVRQAPGKGLEWIACIAIGSSGTTYYASWAKGRFTISRDNSKNTLYLQMNSLRAEDTAVYYCARSGDGYTYVELWGQGTLVTVSS
VL: DIQMTQSPSSLSASVGDRVTITCQASQSISSYLAWYQQKPGKVPKLLIYRASTLASGVPSRFSGSGSGTDFTLTISSLQPEDVATYYCQNYYDIDDSDNTFGQGTKVEIK
notes: CDRs grafted to a human IgG1 framework; recombinant; also called hC12
In the case of B6, the results for the dissociation constant (Kd) in [7] and in assay [8] were 0.08 nM and 0.235 nM, respectively. In addition, the binding result in assay [4] and in assay [5] was “binds” throughout.

B7: humanized C4 (antibody, V domains shown)
VH: EVQLVESGGGLVQPGGSLRLSCAASGFTISNNYWICWVRQAPGKGLEWIGCIATGDGSTYYASWAKGRFTISRDNSKNTLYLQMNSLRAEDTAVYYCARGAAGSSWTTYFDFWGQGTLVTVSS
VL: DIQMTQSPSSLSASVGDRVTITCQAGQNIDNYLSWYQQKPGKVPKLLIYRASTLASGVPSRFSGSGSGTDFTLTISSLQPEDVATYYCQNNNGGSTFTGFPFGQGTKVEIK
notes: CDRs grafted to a human IgG1 framework; recombinant; also called hC4
For B7, the binding result in assay [9] is “binds”; in assay [10], “binds”; in assay [11], “no binding”; in assay [12], “no binding”; in assay [4], “binds”; in assay [5] it was “binds”. In addition, the Kd in [7] was 0.014 nM; in [8], 0.0001 nM.

B8: humanized C18 (antibody, human IgG1, V domains shown)
VH: EVQLVESGGGLVQPGGSLRLSCAASGFSFSSYWTCWVRQAPGKGLEWLGCTDGGSSGDTYYATWAKGRFTISRDNSKNTLYLQMNSLRAEDTAVYYCARNLITWDLWGQGTLVTVSS
VL: DIQMTQSPSSLSASVGDRVTITCQASESVYNNNQLSWYQQKPGKVPKLLIYWASKLASGVPSRFSGSGSGTDFTLTISSLQPEDVATYYCAGYKSSITDGNAFGQGTKVEIK
notes: CDRs grafted to a human IgG1 framework; recombinant; also called hC18
With B8, the Kd in [7] was found to be 0.144 nM; in assay [8] it was 0.526 nM. For the same molecule, the binding result in [4] and in [5] was “binds” throughout.

In general, Kd refers to the constant that tells how readily two partners part at equilibrium.
